Assays:
[1] = biological target: Matrix metalloproteinase-2 (human (endogenous in tumor cells)) (UniProt P08253)
[2] = biological target: MMP-2–cleaved fibronectin (human)

Chain of αvβ3 integrin (P05106 whole entry, looked up): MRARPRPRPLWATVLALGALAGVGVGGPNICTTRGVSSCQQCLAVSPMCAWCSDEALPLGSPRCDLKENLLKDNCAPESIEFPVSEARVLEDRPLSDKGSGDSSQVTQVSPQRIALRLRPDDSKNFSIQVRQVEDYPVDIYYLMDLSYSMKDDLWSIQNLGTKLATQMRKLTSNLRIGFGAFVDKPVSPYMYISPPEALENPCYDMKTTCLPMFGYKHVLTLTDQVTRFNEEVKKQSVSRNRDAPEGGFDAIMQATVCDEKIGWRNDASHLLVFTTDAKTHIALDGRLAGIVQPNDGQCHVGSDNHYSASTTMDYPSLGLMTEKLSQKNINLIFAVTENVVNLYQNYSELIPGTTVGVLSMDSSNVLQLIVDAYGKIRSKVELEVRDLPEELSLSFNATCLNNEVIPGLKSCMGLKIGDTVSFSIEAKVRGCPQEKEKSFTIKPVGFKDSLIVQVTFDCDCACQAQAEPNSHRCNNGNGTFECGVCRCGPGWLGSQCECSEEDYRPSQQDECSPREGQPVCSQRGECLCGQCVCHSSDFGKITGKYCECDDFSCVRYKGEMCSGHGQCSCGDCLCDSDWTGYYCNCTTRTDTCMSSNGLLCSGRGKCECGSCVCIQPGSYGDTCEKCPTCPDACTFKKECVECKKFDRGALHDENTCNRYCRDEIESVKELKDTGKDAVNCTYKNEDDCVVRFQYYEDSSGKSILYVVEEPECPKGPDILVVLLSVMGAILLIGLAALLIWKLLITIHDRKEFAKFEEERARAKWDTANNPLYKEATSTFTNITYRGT
Chain of UniProt P08253 (P08253 30-660): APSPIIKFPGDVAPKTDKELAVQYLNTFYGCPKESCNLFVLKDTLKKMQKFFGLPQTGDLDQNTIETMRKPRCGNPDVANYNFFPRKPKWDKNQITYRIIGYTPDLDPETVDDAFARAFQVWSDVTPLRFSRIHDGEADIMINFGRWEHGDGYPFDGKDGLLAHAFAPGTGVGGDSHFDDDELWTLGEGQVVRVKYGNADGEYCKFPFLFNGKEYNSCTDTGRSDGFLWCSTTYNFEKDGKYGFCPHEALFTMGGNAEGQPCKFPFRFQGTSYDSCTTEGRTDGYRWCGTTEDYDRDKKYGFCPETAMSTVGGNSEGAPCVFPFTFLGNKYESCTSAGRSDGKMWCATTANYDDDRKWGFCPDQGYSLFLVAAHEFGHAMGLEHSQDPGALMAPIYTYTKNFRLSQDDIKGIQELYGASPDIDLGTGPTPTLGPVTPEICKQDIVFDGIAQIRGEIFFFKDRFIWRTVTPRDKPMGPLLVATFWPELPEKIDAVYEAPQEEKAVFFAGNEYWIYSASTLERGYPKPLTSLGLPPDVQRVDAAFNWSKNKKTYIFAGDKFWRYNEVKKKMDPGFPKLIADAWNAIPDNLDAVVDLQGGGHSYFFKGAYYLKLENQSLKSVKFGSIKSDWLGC

static adhesion of fluorescently stained A375 cells to wells coated with APMA-activated recombinant human MMP-2, compared with cells blocked with RGD peptides [1]: > 59% | adhesion of M21 melanoma cells (30 min) to plates coated with MMP-2–cleaved fibronectin compared with full-length fibronectin; no obvious changes with M21-L cells that lack αvβ3 integrin [2]: > 34%
Substance: αvβ3 integrin (from UniProt P05106 27-788) (receptor)

Reference: paper PMC3407216
